Results on two substances are retold here after patent US20100047164A1.

The target of the test is chondroitin sulfate proteoglycan (human) (UniProt Q6UVK1).

For the substance “9.2.27 PE38-KDEL (from UniProt P11439) (scFv)”, the IC50 cytotoxicity, A375 (Expt 2) melanoma cells (9.2.27F10) came to 4500 ng/mL; the IC50 cytotoxicity, A375 (Expt 2) melanoma cells (9.2.27F11) stood at 4500 ng/mL; the IC50 cytotoxicity, A375 (Expt 3) melanoma cells (9.2.27F11) worked out at 600 ng/mL; the IC50 cytotoxicity, D54 glioma cells (9.2.27F10) worked out at 55 ng/mL. For the same substance, the IC50 cytotoxicity, D54 glioma cells (9.2.27F11) came to 70 ng/mL; the IC50 cytotoxicity, D79 glioma cells (9.2.27F10) worked out at 220 ng/mL; the IC50 cytotoxicity, D79 glioma cells (9.2.27F11) came to 100 ng/mL; the IC50 cytotoxicity, D245 glioma cells (9.2.27F10) came to 8 ng/mL. Moreover, the IC50 cytotoxicity, D245 glioma cells (9.2.27F11) amounted to 6 ng/mL; the IC50 cytotoxicity, D247 glioma cells (9.2.27F11) was determined as 80 ng/mL; the IC50 cytotoxicity, H350 melanoma cells (9.2.27F10) was determined as 20 ng/mL; the IC50 cytotoxicity, H350 melanoma cells (9.2.27F11) worked out at 20 ng/mL. The IC50 cytotoxicity, Malme3M melanoma cells (9.2.27F10) worked out at 18 ng/mL; the IC50 cytotoxicity, Malme3M melanoma cells (9.2.27F11) came out at 20 ng/mL; the IC50 cytotoxicity, SKMel2 melanoma cells (9.2.27F10) came out at 2400 ng/mL; the IC50 cytotoxicity, SKMel2 melanoma cells (9.2.27F11) amounted to 700 ng/mL. The IC50 cytotoxicity, SKMel5 melanoma cells (9.2.27F10) turned out to be 350 ng/mL; the IC50 cytotoxicity, SKMel5 melanoma cells (9.2.27F11) was 200 ng/mL; the IC50 cytotoxicity, TB2620 glioma cells (9.2.27F10) worked out at 500 ng/mL; the IC50 cytotoxicity, TB2620 glioma cells (9.2.27F11) worked out at 180 ng/mL.

For the substance “MEL-14 PE38-KDEL (from UniProt P11439) (scFv)”, the IC50 cytotoxicity, A375 (Expt 2) melanoma cells (Mel14-KDEL) is 500 ng/mL; the IC50 cytotoxicity, A375 (Expt 3) melanoma cells (Mel14-KDEL) was determined as 450 ng/mL; the IC50 cytotoxicity, D54 glioma cells (Mel14-KDEL) was determined as 50 ng/mL; the IC50 cytotoxicity, D79 glioma cells (Mel14-KDEL) was 200 ng/mL. Besides, the IC50 cytotoxicity, D245 glioma cells (Mel14-KDEL) stood at 4 ng/mL; the IC50 cytotoxicity, D247 glioma cells (Mel14-KDEL) was found to be 100 ng/mL; the IC50 cytotoxicity, H350 melanoma cells (Mel14-KDEL) turned out to be 8 ng/mL; the IC50 cytotoxicity, Malme3M melanoma cells (Mel14-KDEL) was 1 ng/mL. For the same substance, the IC50 cytotoxicity, SKMel2 melanoma cells (Mel14-KDEL) is 36 ng/mL; the IC50 cytotoxicity, SKMel5 melanoma cells (Mel14-KDEL) was determined as 60 ng/mL; the IC50 cytotoxicity, TB2620 glioma cells (Mel14-KDEL) came to 150 ng/mL.
